Measurements published in patent US20130272968A1 (Bayer, published 2013).
Positions count from the first letter of the chain named.

B1: HE06.642 (antibody, IgG1, V domains shown)
VH: EVQLVESGGGLVQPGGSLRLSCAVSGFTFSSYGMSWVRQAPGKGLEWVATVSSGGTYTYYPDSVKGRFTISRDNSKNTLYLQMNSLRAEDTAVYYCARHRGNYYATYYYAMDYWGQGTLVTVSS
VL: DIVLTQSPDSLAVSLGERATINCKASKSVSTSGYTYMHWYQQKPGQPPKLLIYLASNRESGVPDRFSGSGSGTDFTLTISPVQAEDVATYYCQHSGELPPSFGQGTKLEIKR
B2: 005-C04 (human IgG1) (antibody, V domains shown)
VH: EVQLLESGGGLVQPGGSLRLSCAASGFTFSSYWMHWVRQAPGKGLEWVSDISSASSYTNYADSVKGRFTISRDNSKNTLYLQMNSLRAEDTAVYYCARGLDARRMDYWGQGTLVTVSS
VL: QSVLTQPPSASGTPGQRVTISCTGSSSNIGAGYVVHWYQQLPGTAPKLLIYRNNQRPSGVPDRFSGSKSGTSASLAISGLRSEDEADYYCAAWDDSLNGWLFGGGTKLTVLG
B3: XHA06.642 (antibody, human IgG1, V domains shown)
VH: EVQLVESGGDLVKPGGSLKLSCAVSGFTFSSYGMSWVRQTPDKRLEWVATVSSGGTYTYYPDSVKGRFTISRDNAKNTLYLQMSSLKSEDSAMYYCARHRGNYYATYYYAMDYWGQGTSVTVSS
VL: DIVLTQSPASLAVSLGQGATISCRASKSVSTSGYTYMHWYQQKPGQPPKLLIYLASNLESGVPARFSGSGSGTDFTLNIHPVEEEDAATYYCQHSGELPPSFGGGTKLEIKR
B4: 001-E06 (human IgG1) (antibody, V domains shown)
VH: QVELLESGGGLVQPGGSLRLSCAASGFTFSSYWMSWVRQAPGKGLEWVSSVSDTGTDTHYADSVKGRFTISRDNSKNTLYLQMNSLRAEDTAVYYCAKTPLAYSSGWYYFDYWGQGTLVTVSS
VL: DIVLTQPPSASGTPGQRVTISCSGSSSNIGSNTVNWYQQLPGTAPKLLIYRNYQRPSGVPDRFSGSKSGTSASLAISGLRSEDEADYYCQSYDSSLSGSVFGGGTKLTVLG
B5: 006-H08 (human IgG1) (antibody, V domains shown)
VH: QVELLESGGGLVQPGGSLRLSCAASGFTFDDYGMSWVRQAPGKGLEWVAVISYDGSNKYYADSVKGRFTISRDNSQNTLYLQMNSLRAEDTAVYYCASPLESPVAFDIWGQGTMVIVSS
VL: B4 VL with S26N, T33P, R51D, Y53N, Q54K, S94T, S95G, S99W
B6: 006-H08-53-27-0 (Fab, V domains shown)
VH: EVQLLESGGGLVQPGGSLRLSCAASGFTFDDYGMSWVRQAPGKGLEMVAVISYDGSNKYYADSVKGRFTISRDNSQNTLYLQMNSLRAEDTAVYYCASPLESPVAFDIWGQGTLVTVSS
VL: QSVLTQPPSASGTPGQRVTISCSGSNSNIGSNPVNWYQQLPGTAPKLLIYDNNKRPSGVPDRFSGSKSGTSASLAISGLRSEDEADYYCQSYDTGLSGWVFGGGTKLTVL
notes: Tested as E. coli supernatant; also called maturated 006-H08 Fab variant; copies: 1 + 1
B7: 006-H08-13-6-1 (Fab, V domains shown)
VH: B6 VH with M47W
VL: B6 VL with S31G
notes: as for B6
B8: 006-H08-14-6-0 (Fab, V domains shown)
VH: B6 VH with M47W
VL: B6 VL with N32S
notes: as for B6
B9: 006-H08-32-2 (Fab, V domains shown)
VH: B6 VH with Y53F
VL: B6 VL with S25L, I29V, T94E, S97G
notes: as for B6
B10: 006-H08-33-16-0 (Fab, V domains shown)
VH: B6 VH with M47W
VL: B6 VL with T94E
notes: as for B6
B11: 006-H08-35-17-1 (Fab, V domains shown)
VH: B6 VH with M47W
VL: B6 VL with L96A
notes: as for B6
B12: 006-H08-35-17-4 (Fab, V domains shown)
VH: B6 VH with M47W
VL: B6 VL with L96S
notes: as for B6
B13: 006-H08-36-17-0 (Fab, V domains shown)
VH: B6 VH with M47W
VL: B6 VL with S97G
notes: as for B6
B14: 006-H08-37-19-0 (Fab, V domains shown)
VH: B6 VH with M47W
VL: B6 VL with G98M
notes: as for B6
B15: 006-H08-59-30-0 (Fab, V domains shown)
VH: B6 VH with M47W, Y53F
VL: B6 VL
notes: as for B6
B16: 006-H08-63-32-4 (Fab, V domains shown)
VH: B6 VH with M47W
VL: B6 VL with S25L
notes: as for B6
B17: 006-H08-65-33-2 (Fab, V domains shown)
VH: B6 VH with M47W
VL: B6 VL with S27D
notes: as for B6
B18: 006-H08-68-35-2 (Fab, V domains shown)
VH: B6 VH with M47W
VL: B6 VL with I29V
notes: as for B6
B19: 006-H08-12-2 (Fab, V domains shown)
VH: B6 VH with Y53F
VL: B6 VL with S25L, I29V, N32S, T94E, L96S, S97G, G98M
notes: as for B6
B20: 006-H08-15-5 (Fab, V domains shown)
VH: B6 VH with Y53F
VL: B6 VL with S25L, S31G, N32S, T94E
notes: as for B6
B21: 006-H08-29-1 (Fab, V domains shown)
VH: B6 VH with Y53F
VL: B6 VL with S25L, S27D, I29V, S31G, N32S, L96A, S97G, G98M
notes: as for B6
B22: 006-H08-39-7 (Fab, V domains shown)
VH: B6 VH with Y53F
VL: B6 VL with S25L, I29V, S31G, N32S, T94E, L96S, S97G, G98M
notes: as for B6
B23: 006-H08-48-5 (Fab, V domains shown)
VH: B6 VH with Y53F
VL: B6 VL with S25L, S27D, I29V, L96S, G98M
notes: as for B6

Target: T1, murine prolactin receptor on cells (HEK293 and Ba/F cells stably transfected with murine PRLR) (mouse, UniProt Q08501 20-608)
T1 sequence (looked up): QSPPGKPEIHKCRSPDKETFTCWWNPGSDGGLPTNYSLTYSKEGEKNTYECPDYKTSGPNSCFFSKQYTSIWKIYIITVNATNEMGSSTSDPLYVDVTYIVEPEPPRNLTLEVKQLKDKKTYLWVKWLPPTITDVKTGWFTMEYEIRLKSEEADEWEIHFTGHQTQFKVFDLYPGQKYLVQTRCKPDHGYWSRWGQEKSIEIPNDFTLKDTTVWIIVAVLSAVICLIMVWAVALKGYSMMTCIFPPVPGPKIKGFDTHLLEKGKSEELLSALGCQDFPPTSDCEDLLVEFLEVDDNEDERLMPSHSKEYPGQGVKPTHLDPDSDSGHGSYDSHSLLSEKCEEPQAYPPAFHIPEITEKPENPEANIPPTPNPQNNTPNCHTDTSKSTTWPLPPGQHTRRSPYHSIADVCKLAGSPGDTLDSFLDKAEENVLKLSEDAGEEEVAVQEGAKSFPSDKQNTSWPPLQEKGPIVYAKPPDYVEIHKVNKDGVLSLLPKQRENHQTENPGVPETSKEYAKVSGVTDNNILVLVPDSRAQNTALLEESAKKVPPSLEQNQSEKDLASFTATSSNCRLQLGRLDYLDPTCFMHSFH
Assay: cell-based or functional assay

Row | Binder | IC50, inhibition of prolactin-activated proliferation of Ba/F cells stably expressing the murine prolactin receptor [µg/mL] | IC50, prolactin-activated luciferase reporter gene activity, HEK293 cells stably transfected with mPRLR [µg/mL]
1 | B1 | > 30 | –
2 | B2 | 0.74 | 0.45
3 | B3 | – | > 50
4 | B4 | 43.7 | –

Target: T2, human prolactin receptor on cells (T47D cells; HEK293 and Ba/F cells stably transfected with human PRLR) (human, UniProt P16471 25-622)
T2 sequence (looked up): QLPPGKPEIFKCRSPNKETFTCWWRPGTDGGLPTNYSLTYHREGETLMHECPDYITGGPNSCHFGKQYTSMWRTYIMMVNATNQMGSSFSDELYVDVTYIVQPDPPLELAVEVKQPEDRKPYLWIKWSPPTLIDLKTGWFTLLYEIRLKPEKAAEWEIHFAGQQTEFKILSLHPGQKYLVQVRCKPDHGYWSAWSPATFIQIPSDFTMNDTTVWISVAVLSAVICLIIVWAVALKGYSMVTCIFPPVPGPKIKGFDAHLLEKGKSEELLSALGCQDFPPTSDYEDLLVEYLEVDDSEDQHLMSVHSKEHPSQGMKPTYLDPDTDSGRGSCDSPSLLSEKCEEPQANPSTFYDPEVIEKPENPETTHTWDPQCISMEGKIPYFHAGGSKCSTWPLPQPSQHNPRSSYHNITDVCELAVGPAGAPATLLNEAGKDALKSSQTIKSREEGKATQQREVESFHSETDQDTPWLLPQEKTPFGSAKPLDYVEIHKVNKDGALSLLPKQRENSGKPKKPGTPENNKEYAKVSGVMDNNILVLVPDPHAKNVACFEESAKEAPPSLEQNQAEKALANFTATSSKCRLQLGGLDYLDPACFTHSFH
Assay: cell-based or functional assay

Row | Binder | IC50, prolactin-activated luciferase reporter gene activity, HEK293 cells stably transfected with hPRLR [µg/mL]
5 | B5 | 0.83
6 | B1 | 0.63

Target: T3, extracellular domain of human PRLR (soluble, monomeric, expressed in HEK293 cells) (human, UniProt P16471 25-234)
T3 construct: also called ECD-PRLR; ECD of PRLR
T3 sequence: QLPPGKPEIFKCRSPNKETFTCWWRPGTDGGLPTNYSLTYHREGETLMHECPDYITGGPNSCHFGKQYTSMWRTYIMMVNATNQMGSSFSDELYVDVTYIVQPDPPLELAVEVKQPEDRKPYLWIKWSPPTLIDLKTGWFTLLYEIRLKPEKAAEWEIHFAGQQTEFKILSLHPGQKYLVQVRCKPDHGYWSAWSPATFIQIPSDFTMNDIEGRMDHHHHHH
Assay: HTRF competition: Fab-containing E. coli supernatant with biotinylated ECD of human PRLR and streptavidin-europium, then Alexa Fluor 647-labelled IgG1 006-H08 as competitor; signal at 665 nm after 5 to 65 min; lower signal than control Fab 006-H08 = improved binding [Figure 21]
Method: Normalized E. coli-derived supernatants and 8 nM biotinylated extracellular domain of PRLR together with 1 nM Streptavidin-Europium were incubated in 96 well-microtiter plates for 30 min. Afterwards 200 mM KF and 50 nM Alexa Fluor 647-labeled IgG1 of 006-H08 were added. This mixture was incubated at room temperature for 5, 20, 35, 50, and 65 minutes, respectively. At the indicated time points, the absorption at 665 nm (and 620 nm) was measured using EnVision MultilabelReader (Perkin Elmer).

Row | Binder | binding result
7 | B6 | binds
8 | B7 | binds
9 | B8 | binds
10 | B9 | binds
11 | B10 | binds
12 | B11 | binds
13 | B12 | binds
14 | B13 | binds
15 | B14 | binds
16 | B15 | binds
17 | B16 | binds
18 | B17 | binds
19 | B18 | binds

Target: T3, extracellular domain of human PRLR …
Assay: HTRF competition: Fab-containing E. coli supernatant with biotinylated ECD of human PRLR and streptavidin-europium, then Alexa Fluor 647-labelled IgG1 006-H08 as competitor; signal at 665 nm after 5 to 65 min; lower signal than control Fab 006-H08 = improved binding

Row | Binder | binding result
20 | B19 | binds
21 | B20 | binds
22 | B21 | binds
23 | B22 | binds
24 | B23 | binds
